In publication PMC11724288:

Columns and labels:
[1] = target: TFIIICΔtail complex (S. cerevisiae TFIIIC with τ95 truncated at residue 593) (S. cerevisiae) (UniProt P34111); experiment: mass photometry; TFIIICΔtail at 50 and 100 nM, with and without 85- and 120-bp tRNA^His DNA; 20 mM HEPES pH 8, 100 mM KCl, 2 mM MgCl2, 5 mM DTT
[2] = target: TFIIICΔtail complex (S. cerevisiae TFIIIC with τ95 truncated at residue 593) (S. cerevisiae) (UniProt P34111); experiment: cryo-EM structure; τB–DNA dimer classes of dataset 1 (2 μM TFIIICΔtail with equimolar 85-bp tRNA^His DNA, 200 mM KCl); map with preferred orientation, no model deposited

Question: For “TFIIICΔtail complex (S. cerevisiae TFIIIC with τ95 truncated at residue 593), P34111 1-1160; P33339 1-1025; P32367 1-593; Q06339 1-672; Q12308 1-588; Q12415 1-435”, which stoichiometry N [1] is on record?
Answer: 2

Question: What about the stoichiometry N [2] of the same substance?
Answer: 2
